Drawing on the supplement of paper PMC10724198, this text covers protein stability index for 10 sequences.

Data set [1] has as its system Saccharomyces cerevisiae. The data set is described as follows: protein stability index of tFT-peptide fusion (C-terminal peptide) (PSI (0-1 scale)); higher = more stable (slower turnover). The protocol: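 MPS profiling in S. cerevisiae of the tFT-X12 degron library: putative degron peptides plus stable controls, 12 aa, fused to the C-terminus of a sfGFP-mCherry timer. Cells are FACS-sorted into 8 mCherry/sfGFP bins and deep-sequenced. PSI runs from 0 (unstable) to 1 (stable). Backgrounds are wild type, das1Δ and doa10Δ at 30 °C, and wild type, das1Δ, cdc34-1 and cdc53-1 at 37 °C; 2-3 technical replicates each.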

The test system of data set [2] is Saccharomyces cerevisiae. The description is as above. The following applies: genetic background: wild type; temperature: 30 C.
The mark [3] stands for this setting: genetic background: cdc34-1, temperature: 37 C.
[4] abbreviates: genetic background: cdc53-1, temperature: 37 C.
[5] abbreviates: genetic background: das1 deletion, temperature: 30 C.
Where [6] appears, read: genetic background: das1 deletion, temperature: 37 C.
Where [7] appears, read: genetic background: doa10 deletion, temperature: 30 C.
Where [8] appears, read: genetic background: wild type, temperature: 30 C.
The mark [9] stands for this setting: genetic background: wild type, temperature: 37 C.

± gives the standard deviation of the averaged measurements.
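Also: PSI is a weighted mean of sequencing reads over stability bins, variants kept only with over 10 reads, mCherry proximal and sfGFP distal, peptide attached via GGGS linker.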

LHLLFLPFVVCL: the protein stability index in data set [1] (setting [3]) was 0.212 ± 0.017; in data set [1] (setting [4]), 0.2458 ± 0.0015; in data set [1] (setting [5]), 0.216 ± 0.037; in data set [1] (setting [6]) it was 0.348 ± 0.027; in data set [1] (setting [7]), 0.0556 ± 0.012; in data set [1] (setting [8]), 0.0711 ± 0.025. Also, the protein stability index in data set [1] (setting [9]) is 0.113 ± 0.014; in data set [2], 0.108 ± 0.02.
For the sequence LIFFFCSWVFRF, the protein stability index in data set [1] (setting [3]) stood at 0.3037 ± 0.00048; in data set [1] (setting [4]), 0.291 ± 0.032; in data set [1] (setting [5]), 0.402 ± 0.061; in data set [1] (setting [6]), 0.464 ± 0.031; in data set [1] (setting [7]) it was 0.327 ± 0.044; in data set [1] (setting [8]), 0.272 ± 0.038. The values for the protein stability index in data set [1] (setting [9]) and in data set [2] were 0.365 ± 0.0071 and 0.377 ± 0.012, respectively.
Turning to LIFLSISFISSL, the protein stability index in data set [1] (setting [3]) worked out at 0.1 ± 0.0059; in data set [1] (setting [4]), 0.245 ± 0.049; in data set [1] (setting [5]), 0.168 ± 0.036; in data set [1] (setting [6]) it was 0.316 ± 0.028; in data set [1] (setting [7]), 0.104 ± 0.043; in data set [1] (setting [8]) it was 0.15 ± 0.037. Besides, the protein stability index came out at 0.286 ± 0.0096 in data set [1] (setting [9]) and 0.295 ± 0.05 in data set [2].
For LILFMLLSFLTT, the protein stability index in data set [1] (setting [3]) is 0.371 ± 0.013; in data set [1] (setting [4]) it was 0.409 ± 0.042; in data set [1] (setting [5]), 0.294 ± 0.028; in data set [1] (setting [6]), 0.419 ± 0.018; in data set [1] (setting [7]), 0.281 ± 0.016; in data set [1] (setting [8]), 0.293 ± 0.025. Besides, the protein stability index in data set [1] (setting [9]) stood at 0.3954 ± 0.0026; in data set [2] it was 0.373 ± 0.032.
Consider LIRVLRVLRHSS, for which the protein stability index is 0.607 ± 0.015 in data set [1] (setting [3]); 0.6917 ± 0.0043 in data set [1] (setting [4]); 0.638 ± 0.018 in data set [1] (setting [5]); 0.7225 ± 0.0011 in data set [1] (setting [6]); 0.167 ± 0.0097 in data set [1] (setting [7]); 0.194 ± 0.021 in data set [1] (setting [8]). For the same sequence, the protein stability index in data set [1] (setting [9]) came out at 0.382 ± 0.045; in data set [2] it was 0.375 ± 0.056.
Regarding LLAVIVWIVPPA, the protein stability index in data set [1] (setting [3]) was 0.241 ± 0.01; in data set [1] (setting [4]) it was 0.35 ± 0.0085; in data set [1] (setting [5]), 0.233 ± 0.023; in data set [1] (setting [6]), 0.423 ± 0.0079; in data set [1] (setting [7]), 0.204 ± 0.0016; in data set [1] (setting [8]), 0.222 ± 0.028. Besides, the protein stability index in data set [1] (setting [9]) came out at 0.39 ± 0.0093; in data set [2], 0.304 ± 0.042.
Regarding LLCRVSRTRILC, the protein stability index was 0.478 ± 0.026 in data set [1] (setting [3]); 0.533 ± 0.0097 in data set [1] (setting [4]); 0.426 ± 0.021 in data set [1] (setting [5]); 0.58 ± 0.0099 in data set [1] (setting [6]); 0.104 ± 0.012 in data set [1] (setting [7]); 0.128 ± 0.013 in data set [1] (setting [8]). The protein stability index in data set [1] (setting [9]) was 0.166 ± 0.022; in data set [2] it was 0.227 ± 0.013.
Consider LLDIYFILLVWF, for which the protein stability index was determined as 0.263 ± 0.02 in data set [1] (setting [3]); 0.237 ± 0.03 in data set [1] (setting [4]); 0.267 ± 0.023 in data set [1] (setting [5]); 0.399 ± 0.024 in data set [1] (setting [6]); 0.359 ± 0.021 in data set [1] (setting [7]); 0.258 ± 0.019 in data set [1] (setting [8]). The values for the protein stability index in data set [1] (setting [9]) and in data set [2] were 0.432 ± 0.066 and 0.346 ± 0.29, respectively.
As to LLFLWVLFLPFA, the protein stability index in data set [1] (setting [3]) was determined as 0.4449 ± 0.00067; in data set [1] (setting [4]), 0.469 ± 0.005; in data set [1] (setting [5]), 0.346 ± 0.036; in data set [1] (setting [6]), 0.5234 ± 0.0037; in data set [1] (setting [7]), 0.361 ± 0.012; in data set [1] (setting [8]), 0.342 ± 0.026. Moreover, the protein stability index is 0.472 ± 0.0041 in data set [1] (setting [9]) and 0.363 ± 0.045 in data set [2].
As to LLFPRVLVLCFS, the protein stability index in data set [1] (setting [3]) came out at 0.034 ± 0.011; in data set [1] (setting [4]) it was 0.0512 ± 0.0018; in data set [1] (setting [5]) it was 0.124 ± 0.037; in data set [1] (setting [6]), 0.154 ± 0.0093; in data set [1] (setting [7]), 0.105 ± 0.016; in data set [1] (setting [8]) it was 0.117 ± 0.024. For the same sequence, the protein stability index in data set [1] (setting [9]) stood at 0.116 ± 0.012; in data set [2], 0.183 ± 0.029.
